# According to the supplement of paper PMC9112550, “Optimization of the antimicrobial peptide Bac7 by deep mutational scanning” (BMC Biology, 2022):
# System: Escherichia coli TOP10
# Assay: shrunken log2 fold change of peptide-encoding DNA abundance (4.5 h post-induction vs induction); higher = less antimicrobial activity (less host growth inhibition)
# Details: time post-induction: 4.5 h; library: site-saturation at positions 5, 18, 19, 20
# 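Further: peptides expressed intracellularly from a pBAD plasmid library in pooled LB shake-flask culture, induced with 0.3% L-arabinose, DNA abundance read by NGS, three biological replicates, DESeq2 with apeglm shrinkage.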
row,Sequence,shrunken log2 fold change
1,RRIRFRPPRLPRPRPRPEPIPRP,0.291
2,RRIRERPPRLPRPRPRPRQSPRP,-0.0972
3,RRIRHRPPRLPRPRPRPQGNPRP,-0.168
4,RRIRPRPPRLPRPRPRPSGSPRP,0.0191
5,RRIRNRPPRLPRPRPRPDHTPRP,-0.0123
6,RRIRLRPPRLPRPRPRPPDNPRP,0.0299
7,RRIRTRPPRLPRPRPRPEHNPRP,-0.353
8,RRIRNRPPRLPRPRPRPHFWPRP,-0.285
9,RRIRARPPRLPRPRPRPVFGPRP,0.353
10,RRIRDRPPRLPRPRPRPLYRPRP,-0.163
11,RRIRSRPPRLPRPRPRPPHNPRP,-0.0338
12,RRIRTRPPRLPRPRPRPCGDPRP,0.176
13,RRIRFRPPRLPRPRPRPHNNPRP,-0.638
14,RRIRMRPPRLPRPRPRPSFDPRP,0.485
15,RRIRHRPPRLPRPRPRPFPRPRP,0.0685
16,RRIRLRPPRLPRPRPRPPEQPRP,-0.0138
17,RRIRHRPPRLPRPRPRPWAIPRP,0.112
18,RRIRRRPPRLPRPRPRPWHQPRP,-0.111
19,RRIRGRPPRLPRPRPRPDYVPRP,0.66
20,RRIRPRPPRLPRPRPRPWAVPRP,-0.227
21,RRIRHRPPRLPRPRPRPMKGPRP,0.081
22,RRIRPRPPRLPRPRPRPDQSPRP,0.021
23,RRIRPRPPRLPRPRPRPSNSPRP,-0.794
24,RRIRDRPPRLPRPRPRPISKPRP,0.002
25,RRIRGRPPRLPRPRPRPENEPRP,0.686

row,Sequence,shrunken log2 fold change
1,RRIRLRPPRLPRPRPRPHGCPRP,-0.0225
2,RRIRVRPPRLPRPRPRPYKNPRP,-0.848
3,RRIRHRPPRLPRPRPRPTYHPRP,-0.514
4,RRIRFRPPRLPRPRPRPAQYPRP,-0.574
5,RRIRYRPPRLPRPRPRPQVMPRP,-0.0105
6,RRIRSRPPRLPRPRPRPHVSPRP,-0.0482
7,RRIRLRPPRLPRPRPRPDCQPRP,0.153
8,RRIRNRPPRLPRPRPRPSNWPRP,-0.203
9,RRIRPRPPRLPRPRPRPAWSPRP,0.152
10,RRIRIRPPRLPRPRPRPDQMPRP,-0.393
11,RRIRTRPPRLPRPRPRPCLGPRP,-0.534
12,RRIRKRPPRLPRPRPRPFCYPRP,-0.14
13,RRIRKRPPRLPRPRPRPNCPPRP,0.0785
14,RRIRIRPPRLPRPRPRPNRAPRP,1.1
15,RRIRLRPPRLPRPRPRPGDKPRP,0.00262
16,RRIRFRPPRLPRPRPRPIHKPRP,-0.775
17,RRIRTRPPRLPRPRPRPYCMPRP,-1.28
18,RRIRKRPPRLPRPRPRPNSHPRP,-0.272
19,RRIRLRPPRLPRPRPRPFNLPRP,-0.596
20,RRIRKRPPRLPRPRPRPRKTPRP,0.303
21,RRIRERPPRLPRPRPRPLSSPRP,0.00508
22,RRIRSRPPRLPRPRPRPVNGPRP,-0.00994
23,RRIRIRPPRLPRPRPRPTFAPRP,-0.176
24,RRIRIRPPRLPRPRPRPPICPRP,-0.132
25,RRIRLRPPRLPRPRPRPDVHPRP,-0.186

row,Sequence,shrunken log2 fold change
1,RRIRNRPPRLPRPRPRPKFEPRP,0.0146
2,RRIRSRPPRLPRPRPRPHPVPRP,0.12
3,RRIRMRPPRLPRPRPRPMQGPRP,0.4
4,RRIRNRPPRLPRPRPRPEYGPRP,-0.284
5,RRIRCRPPRLPRPRPRPGVNPRP,-0.584
6,RRIRARPPRLPRPRPRPSDIPRP,-0.0794
7,RRIRVRPPRLPRPRPRPHNEPRP,-0.811
8,RRIRARPPRLPRPRPRPGQTPRP,0.178
9,RRIRERPPRLPRPRPRPCMKPRP,-0.506
10,RRIRGRPPRLPRPRPRPEDLPRP,0.582
11,RRIRVRPPRLPRPRPRPWMFPRP,-0.673
12,RRIRVRPPRLPRPRPRPMGFPRP,0.034
13,RRIRMRPPRLPRPRPRPWLTPRP,0.158
14,RRIRERPPRLPRPRPRPPCRPRP,-0.0117
15,RRIRGRPPRLPRPRPRPYTSPRP,-0.278
16,RRIRERPPRLPRPRPRPFLIPRP,-0.728
17,RRIRTRPPRLPRPRPRPMMEPRP,-0.202
18,RRIRYRPPRLPRPRPRPDAIPRP,-0.224
19,RRIRMRPPRLPRPRPRPYFRPRP,-0.575
20,RRIRDRPPRLPRPRPRPWEVPRP,-0.0135
21,RRIRNRPPRLPRPRPRPGFRPRP,0.114
22,RRIRSRPPRLPRPRPRPIHCPRP,-0.452
23,RRIRTRPPRLPRPRPRPKNQPRP,-0.274
24,RRIRQRPPRLPRPRPRPWKMPRP,-0.112
25,RRIRDRPPRLPRPRPRPKFTPRP,-0.0602

row,Sequence,shrunken log2 fold change
1,RRIRIRPPRLPRPRPRPSNEPRP,-0.945
2,RRIRSRPPRLPRPRPRPYVFPRP,-0.545
3,RRIRMRPPRLPRPRPRPNDMPRP,-0.204
4,RRIRYRPPRLPRPRPRPFCPPRP,-0.878
5,RRIRFRPPRLPRPRPRPVFRPRP,-0.362
6,RRIRWRPPRLPRPRPRPQSPPRP,0.0211
7,RRIRLRPPRLPRPRPRPHNEPRP,-0.497
8,RRIRHRPPRLPRPRPRPAPTPRP,0.294
9,RRIRKRPPRLPRPRPRPIRDPRP,-0.016
10,RRIRMRPPRLPRPRPRPRVQPRP,0.64
11,RRIRPRPPRLPRPRPRPQLWPRP,0.221
12,RRIRERPPRLPRPRPRPSMAPRP,-0.192
13,RRIRQRPPRLPRPRPRPFWYPRP,-0.171
14,RRIRKRPPRLPRPRPRPNDMPRP,0.194
15,RRIRIRPPRLPRPRPRPVSSPRP,-0.213
16,RRIRVRPPRLPRPRPRPNAAPRP,0.0557
17,RRIRHRPPRLPRPRPRPYTVPRP,0.0229
18,RRIRARPPRLPRPRPRPMLSPRP,0.133
19,RRIRSRPPRLPRPRPRPPAHPRP,0.303
20,RRIRPRPPRLPRPRPRPQFNPRP,-0.5
21,RRIRTRPPRLPRPRPRPSASPRP,-0.0732
22,RRIRSRPPRLPRPRPRPPVLPRP,0.0563
23,RRIRARPPRLPRPRPRPPSAPRP,0.827
24,RRIRFRPPRLPRPRPRPMEFPRP,-0.194
25,RRIRGRPPRLPRPRPRPRKVPRP,0.741

row,Sequence,shrunken log2 fold change
1,RRIRERPPRLPRPRPRPGCIPRP,-1.12
2,RRIRRRPPRLPRPRPRPAGFPRP,0.439
3,RRIRYRPPRLPRPRPRPVQMPRP,-0.0524
4,RRIRARPPRLPRPRPRPVCYPRP,-0.128
5,RRIRIRPPRLPRPRPRPEACPRP,-0.064
6,RRIRTRPPRLPRPRPRPHYPPRP,-0.782
7,RRIRWRPPRLPRPRPRPIVMPRP,-0.154
8,RRIRPRPPRLPRPRPRPTHLPRP,0.23
9,RRIRFRPPRLPRPRPRPCQVPRP,0.084
10,RRIRVRPPRLPRPRPRPYNLPRP,-0.414
11,RRIRHRPPRLPRPRPRPPWRPRP,0.538
12,RRIRHRPPRLPRPRPRPGGAPRP,0.311
13,RRIRWRPPRLPRPRPRPNMPPRP,-0.268
14,RRIRVRPPRLPRPRPRPCVVPRP,0.0226
15,RRIRDRPPRLPRPRPRPYIYPRP,-0.184
16,RRIRARPPRLPRPRPRPVCIPRP,0.11
17,RRIRRRPPRLPRPRPRPMVYPRP,0.119
18,RRIRHRPPRLPRPRPRPQVFPRP,-0.00865
19,RRIRFRPPRLPRPRPRPSIVPRP,-0.663
20,RRIRVRPPRLPRPRPRPYMNPRP,-0.962
21,RRIRMRPPRLPRPRPRPDQWPRP,0.312
22,RRIRLRPPRLPRPRPRPHLKPRP,-0.564
23,RRIRLRPPRLPRPRPRPPMPPRP,0.0906
24,RRIRKRPPRLPRPRPRPLPMPRP,0.562
25,RRIRWRPPRLPRPRPRPFAEPRP,0.801

row,Sequence,shrunken log2 fold change
1,RRIRVRPPRLPRPRPRPMDRPRP,-0.308
2,RRIRTRPPRLPRPRPRPAVPPRP,0.0514
3,RRIRVRPPRLPRPRPRPARQPRP,0.365
4,RRIRFRPPRLPRPRPRPKRAPRP,0.244
5,RRIRARPPRLPRPRPRPYWWPRP,-0.195
6,RRIRARPPRLPRPRPRPPNCPRP,0.354
7,RRIRIRPPRLPRPRPRPNLSPRP,-0.0917
8,RRIRNRPPRLPRPRPRPMWVPRP,0.0358
9,RRIRRRPPRLPRPRPRPNMMPRP,-0.245
10,RRIRHRPPRLPRPRPRPIFFPRP,0.0211
11,RRIRVRPPRLPRPRPRPQRNPRP,-0.0128
12,RRIRARPPRLPRPRPRPWNQPRP,-0.247
13,RRIRRRPPRLPRPRPRPGHLPRP,0.067
14,RRIRPRPPRLPRPRPRPLQYPRP,-0.478
15,RRIRCRPPRLPRPRPRPGDGPRP,0.646
16,RRIRRRPPRLPRPRPRPLMEPRP,-0.0263
17,RRIRCRPPRLPRPRPRPHTCPRP,0.0253
18,RRIRARPPRLPRPRPRPVYCPRP,-0.175
19,RRIRYRPPRLPRPRPRPTQRPRP,-0.164
20,RRIRRRPPRLPRPRPRPPSAPRP,0.626
21,RRIRARPPRLPRPRPRPHCNPRP,0.717
22,RRIRVRPPRLPRPRPRPTPIPRP,0.186
23,RRIRLRPPRLPRPRPRPGNWPRP,0.0269
24,RRIRPRPPRLPRPRPRPSSTPRP,-0.315
25,RRIRPRPPRLPRPRPRPSKVPRP,-0.223
